System: renin-angiotensin system (RAS)
Assay: RSSE-Fingerprinting: blood incubated at 37° C. with added agents, LC-MS/MS quantification of angiotensin peptides
Type: biochemical, human
Details: for shift of RSSE-Fingerprint: 5 μg/ml enzyme added prior to incubation
Protocol: Blood samples were collected and anti-coagulated with standardised heparin tubes (BD). As indicated in FIGS. 3A-3C, plasma separation has been done for the respective samples before the incubation to reach steady state equilibrium.
Following plasma separation by centrifugation at 3000 rcf for 10 minutes at 4° C., […] of plasma was applied onto an activated and equilibrated SEP-PAK™ C18 cartridge. Sample matrix components were removed by washing three times with 1 ml water. Bound analytes were then eluted with 1 ml of methanol. Eluates were evaporated to dryness and reconstituted in 10% acetonitril/90% water supplemented with 0.1% formic acid followed by subjection to LC-MS/MS analysis.
A vacuum manifold has been used for sample processing. • 1. Activation: EtOH abs. • 2. Equilibration: 2×1 ml H2O • 3. Loading: 0.2-1 ml stabilised plasma • 4. Washing: 3×1 ml H2O • 5. Elution: 1 ml MeOH Quantification and Signal Integration
MRM chromatograms were integrated using Analyst 1.5.1 software provided by Applied Biosystems. The threshold for the quantification limit was set at a signal-to-noise ratio of 10. Integration signals not reaching this ratio were set to zero. Analyte signals were related to internal standard signals and concentration was calculated from initially spiked amounts of internal standards.

Molecule | shift of RSSE-Fingerprint | steady state equilibrium Ang 1-10 concentration, addition of ACE compared to ACE2 (5 μg/ml enzyme, FIG. 2B1)
ACE: recombinant RAS enzyme Angiotensin Converting Enzyme, purchased from R&D Systems (protein, UniProt P12821 30-1306, looked up) Angiotensin-converting enzyme: LDPGLQPGNFSADEAGAQLFAQSYNSSAEQVLFQSVAASWAHDTNITAENARRQEEAALLSQEFAEAWGQKAKELYEPIWQNFTDPQLRRIIGAVRTLGSANLPLAKRQQYNALLSNMSRIYSTAKVCLPNKTATCWSLDPDLTNILASSRSYAMLLFAWEGWHNAAGIPLKPLYEDFTALSNEAYKQDGFTDTGAYWRSWYNSPTFEDDLEHLYQQLEPLYLNLHAFVRRALHRRYGDRYINLRGPIPAHLLGDMWAQSWENIYDMVVPFPDKPNLDVTSTMLQQGWNATHMFRVAEEFFTSLELSPMPPEFWEGSMLEKPADGREVVCHASAWDFYNRKDFRIKQCTRVTMDQLSTVHHEMGHIQYYLQYKDLPVSLRRGANPGFHEAIGDVLALSVSTPEHLHKIGLLDRVTNDTESDINYLLKMALEKIAFLPFGYLVDQWRWGVFSGRTPPSRYNFDWWYLRTKYQGICPPVTRNETHFDAGAKFHVPNVTPYIRYFVSFVLQFQFHEALCKEAGYEGPLHQCDIYRSTKAGAKLRKVLQAGSSRPWQEVLKDMVGLDALDAQPLLKYFQPVTQWLQEQNQQNGEVLGWPEYQWHPPLPDNYPEGIDLVTDEAEASKFVEEYDRTSQVVWNEYAEANWNYNTNITTETSKILLQKNMQIANHTLKYGTQARKFDVNQLQNTTIKRIIKKVQDLERAALPAQELEEYNKILLDMETTYSVATVCHPNGSCLQLEPDLTNVMATSRKYEDLLWAWEGWRDKAGRAILQFYPKYVELINQAARLNGYVDAGDSWRSMYETPSLEQDLERLFQELQPLYLNLHAYVRRALHRHYGAQHINLEGPIPAHLLGNMWAQTWSNIYDLVVPFPSAPSMDTTEAMLKQGWTPRRMFKEADDFFTSLGLLPVPPEFWNKSMLEKPTDGREVVCHASAWDFYNGKDFRIKQCTTVNLEDLVVAHHEMGHIQYFMQYKDLPVALREGANPGFHEAIGDVLALSVSTPKHLHSLNLLSSEGGSDEHDINFLMKMALDKIAFIPFSYLVDQWRWRVFDGSITKENYNQEWWSLRLKYQGLCPPVPRTQGDFDPGAKFHIPSSVPYIRYFVSFIIQFQFHEALCQAAGHTGPLHKCDIYQSKEAGQRLATAMKLGFSRPWPEAMQLITGQPNMSASAMLSYFKPLLDWLRTENELHGEKLGWPQYNWTPNSARSEGPLPDSGRVSFLGLDLDAQQARVGQWLLLFLGIALLVATLGLSQRLFSIRHRSLHRHSHGPQFGSEVELRHS | shifted as expected | lower
APN: recombinant aminopeptidase N, purchased from R&D Systems (protein, UniProt P15144 2-967, looked up) Aminopeptidase N: AKGFYISKSLGILGILLGVAAVCTIIALSVVYSQEKNKNANSSPVASTTPSASATTNPASATTLDQSKAWNRYRLPNTLKPDSYRVTLRPYLTPNDRGLYVFKGSSTVRFTCKEATDVIIIHSKKLNYTLSQGHRVVLRGVGGSQPPDIDKTELVEPTEYLVVHLKGSLVKDSQYEMDSEFEGELADDLAGFYRSEYMEGNVRKVVATTQMQAADARKSFPCFDEPAMKAEFNITLIHPKDLTALSNMLPKGPSTPLPEDPNWNVTEFHTTPKMSTYLLAFIVSEFDYVEKQASNGVLIRIWARPSAIAAGHGDYALNVTGPILNFFAGHYDTPYPLPKSDQIGLPDFNAGAMENWGLVTYRENSLLFDPLSSSSSNKERVVTVIAHELAHQWFGNLVTIEWWNDLWLNEGFASYVEYLGADYAEPTWNLKDLMVLNDVYRVMAVDALASSHPLSTPASEINTPAQISELFDAISYSKGASVLRMLSSFLSEDVFKQGLASYLHTFAYQNTIYLNLWDHLQEAVNNRSIQLPTTVRDIMNRWTLQMGFPVITVDTSTGTLSQEHFLLDPDSNVTRPSEFNYVWIVPITSIRDGRQQQDYWLIDVRAQNDLFSTSGNEWVLLNLNVTGYYRVNYDEENWRKIQTQLQRDHSAIPVINRAQIINDAFNLASAHKVPVTLALNNTLFLIEERQYMPWEAALSSLSYFKLMFDRSEVYGPMKNYLKKQVTPLFIHFRNNTNNWREIPENLMDQYSEVNAISTACSNGVPECEEMVSGLFKQWMENPNNNPIHPNLRSTVYCNAIAQGGEEEWDFAWEQFRNATLVNEADKLRAALACSKELWILNRYLSYTLNPDLIRKQDATSTIISITNNVIGQGLVWDFVQSNWKKLFNDYGGGSFSFSNLIQAVTRRFSTEYELQQLEQFKKDNEETGFGSGTRALEQALEKTKANIKWVKENKEVVLQWFTENSK | shifted as expected | 
NEP: recombinant neutral endopeptidase (neprilysin), purchased from R&D Systems (protein, UniProt P08473 2-750, looked up) Neprilysin: GKSESQMDITDINTPKPKKKQRWTPLEISLSVLVLLLTIIAVTMIALYATYDDGICKSSDCIKSAARLIQNMDATTEPCTDFFKYACGGWLKRNVIPETSSRYGNFDILRDELEVVLKDVLQEPKTEDIVAVQKAKALYRSCINESAIDSRGGEPLLKLLPDIYGWPVATENWEQKYGASWTAEKAIAQLNSKYGKKVLINLFVGTDDKNSVNHVIHIDQPRLGLPSRDYYECTGIYKEACTAYVDFMISVARLIRQEERLPIDENQLALEMNKVMELEKEIANATAKPEDRNDPMLLYNKMTLAQIQNNFSLEINGKPFSWLNFTNEIMSTVNISITNEEDVVVYAPEYLTKLKPILTKYSARDLQNLMSWRFIMDLVSSLSRTYKESRNAFRKALYGTTSETATWRRCANYVNGNMENAVGRLYVEAAFAGESKHVVEDLIAQIREVFIQTLDDLTWMDAETKKRAEEKALAIKERIGYPDDIVSNDNKLNNEYLELNYKEDEYFENIIQNLKFSQSKQLKKLREKVDKDEWISGAAVVNAFYSSGRNQIVFPAGILQPPFFSAQQSNSLNYGGIGMVIGHEITHGFDDNGRNFNKDGDLVDWWTQQSASNFKEQSQCMVYQYGNFSWDLAGGQHLNGINTLGENIADNGGLGQAYRAYQNYIKKNGEEKLLPGLDLNHKQLFFLNFAQVWCGTYRPEYAVNSIKTDVHSPGNFRIIGTLQNSAEFSEAFHCRKNSYMNPEKKCRVW | shifted as expected | 
